Experiments:
[1] = biological target: Bovine serum albumin (BSA; Ultra Pure) (bovine) (UniProt P02769); assay: chromogenic IHC on TMA, cores without peptide
[2] = biological target: BCL2 peptide Ac-…-amide (amino acids 41-54 of human BCL2 with linkers) (human); assay: chromogenic IHC on peptide/BSA gel TMA, antigen concentration at half-maximum signal
[3] = biological target: Bovine serum albumin (BSA; Ultra Pure) (bovine) (UniProt P02769); assay: chromogenic IHC, aggregate of 10 assays; cores without peptide
[4] = biological target: BCL2 peptide Ac-…-amide (amino acids 41-54 of human BCL2 with linkers) (human); assay: chromogenic IHC, aggregate of 10 assays; BCL2 peptide 2.5E-08 M as formulated
[5] = biological target: Bovine serum albumin (BSA; Ultra Pure) (bovine) (UniProt P02769); assay: chromogenic IHC, aggregate of 10 assays; BSA only cores
[6] = biological target: BCL2 peptide Ac-…-amide (amino acids 41-54 of human BCL2 with linkers) (human); assay: chromogenic IHC, aggregate of 10 assays; BCL2 peptide 2.5E-07 M as formulated
[7] = biological target: Bovine serum albumin (BSA; Ultra Pure) (bovine) (UniProt P02769); assay: immunofluorescent IHC on TMA, cores without peptide
[8] = biological target: BCL2 peptide Ac-…-amide (amino acids 41-54 of human BCL2 with linkers) (human); assay: chromogenic IHC, aggregate of 10 assays
[9] = biological target: BCL2 peptide Ac-…-amide (amino acids 41-54 of human BCL2 with linkers) (human); assay: IHC with clone 124 on donor block sections, alternative fixatives
[10] = biological target: BCL2 peptide variant with N-terminal arginine (R-C) (human); assay: chromogenic IHC with clone 124 on peptide/BSA gel TMA
[11] = biological target: BCL2 peptide Ac-…-amide (amino acids 41-54 of human BCL2 with linkers) (human); assay: chromogenic IHC on BCL2 peptide TMA with or without prior antigen retrieval
[12] = biological target: BCL2 peptide Ac-…-amide (amino acids 41-54 of human BCL2 with linkers) (human); assay: chromogenic IHC, aggregate of 10 assays; BCL2 peptide 2.5E-06 M as formulated
[13] = biological target: BCL2 peptide Ac-…-amide (amino acids 41-54 of human BCL2 with linkers) (human); assay: chromogenic IHC, aggregate of 10 assays; BCL2 peptide 2.5E-04 M as formulated
[14] = biological target: BCL2 peptide Ac-…-amide (amino acids 41-54 of human BCL2 with linkers) (human); assay: chromogenic IHC, aggregate of 10 assays; BCL2 peptide 2.5E-05 M as formulated
[15] = biological target: MYC peptide Ac-…-amide (amino acids 9-24) (human); assay: chromogenic IHC on BCL2/MYC peptide TMA
[16] = biological target: MYC peptide Ac-…-amide (amino acids 9-24) (human); assay: IHC with clone Y69 on donor block sections, alternative fixatives

BCL2 peptide Ac-…-amide (amino acids 41-54 of human BCL2 with linkers) (human), sequence (peptide, as listed by the source): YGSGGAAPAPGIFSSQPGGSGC
UniProt P02769, sequence (P02769 25-607 limits assumed): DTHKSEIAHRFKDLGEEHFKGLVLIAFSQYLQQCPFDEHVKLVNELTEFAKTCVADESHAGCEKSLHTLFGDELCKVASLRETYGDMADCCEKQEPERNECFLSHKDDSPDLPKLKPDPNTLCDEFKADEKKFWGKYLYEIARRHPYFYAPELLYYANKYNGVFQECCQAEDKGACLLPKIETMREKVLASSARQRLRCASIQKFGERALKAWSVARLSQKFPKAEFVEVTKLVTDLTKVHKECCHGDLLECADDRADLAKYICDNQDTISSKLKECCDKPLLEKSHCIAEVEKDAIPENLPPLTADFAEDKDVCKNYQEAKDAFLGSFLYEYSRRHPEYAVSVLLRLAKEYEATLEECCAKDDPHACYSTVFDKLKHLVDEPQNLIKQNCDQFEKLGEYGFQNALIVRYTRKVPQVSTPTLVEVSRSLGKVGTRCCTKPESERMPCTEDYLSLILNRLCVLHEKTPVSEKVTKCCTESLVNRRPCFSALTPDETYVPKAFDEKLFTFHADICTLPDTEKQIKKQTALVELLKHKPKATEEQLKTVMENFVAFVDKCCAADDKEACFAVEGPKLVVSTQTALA
MYC peptide Ac-…-amide (amino acids 9-24) (human), sequence (peptide, as listed by the source): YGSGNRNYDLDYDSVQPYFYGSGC
BCL2 peptide variant with N-terminal arginine (R-C) (human), sequence (peptide, as listed by the source mutant): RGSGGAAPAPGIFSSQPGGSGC

non-specific signal in cores containing no added peptide, % of the maximum detectable signal [1]	ACHM, fold lower than the ACHM for the chromogenic clone 124 assay [2]	ACHM, fold lower than the fluorescent clone 124 assay [2]	limit of blank (LOB) [3]	Intensity Mean (pixel intensity units) [4]	Intensity Mean (pixel intensity units) [5]	Intensity Mean (pixel intensity units) [6]	non-specific signal in cores containing no added peptide, fold lower than in the chromogenic clone 124 assay [7]	limit of detection (LOD), peptide concentration [8]	limit of detection (LOD), signal [8]	fold signal, formaldehyde fixation against zinc fixation during heating [9]	ACHM (antigen concentration at half-maximum signal) [10]	ACHM, fold lower than the original Y-C variant [10]	fold signal strength with against without antigen retrieval [11]	Intensity Mean (pixel intensity units) [12]	Intensity Mean (pixel intensity units) [13]	Intensity Mean (pixel intensity units) [14]	ACHM, fold lower than the BCL2 protocol (clone 124 on BCL2 peptide) [15]	fold signal, formaldehyde fixation against zinc fixation during heating [16]	Substance
23%	8 fold	> 50 fold	–	–	–	–	–	–	–	–	–	–	–	–	–	–	–	–	rabbit anti-human BCL2 clone EPR17509 (antibody)
2.7%	–	–	8 units	6.1	4.8	18	1000 fold	230 nM	16 units	10 fold	443 nM	6 fold	6 fold	105	212	202	–	–	CONFIRM anti-bcl-2 (124) Mouse Monoclonal Primary Antibody
–	–	–	–	–	–	–	–	–	–	–	–	–	–	–	–	–	4 fold	10 fold	rabbit anti-human MYC clone Y69 (antibody)

From patent US20200292536A1
